Laboratory results from PMC4661071.

What was measured:
[1] = molecular target: EPCR R81A on stably transfected CHO745 cells (UniProt Q9UNN8); experiment: flow cytometry on cells
[2] = molecular target: wild-type EPCR on stably transfected CHO745 cells (UniProt Q9UNN8); experiment: flow cytometry on cells
[3] = molecular target: recombinant soluble EPCR (extracellular region, residues 18–210), biotinylated (UniProt Q9UNN8); experiment: BLI

Work on “Var07CIDRα1.4 recombinant protein (domain or fragment)” yielded a decrease of binding relative to wild type EPCR [1] of 80%, an MFI of Fl-APC on the cells with 100 µg/ml of the CIDR domain (1329 without) [2] of 385 and a double positive cells (CIDR and Fl-APC) at 100 µg/ml of the CIDR domain [2] of 28%.
“fluorescein-labelled activated protein C (Fl-APC) (from UniProt P04070 43-197; P04070 43-197) (enzyme)” gave an MFI of Fl-APC, without CIDR domains [2] of 1330 and a percent of cells that bound 50 µg/ml Fl-APC, without CIDR domains [2] of 78%.
Substance “Var06CIDRα1.1 recombinant protein (domain or fragment)” has an MFI of Fl-APC on the cells with 250 µg/ml of the CIDR domain (1329 without) [2] of 429, a double positive cells (CIDR and Fl-APC) at 250 µg/ml of the CIDR domain [2] of 62% and a Kd [3] of 98 nM.
For “activated protein C (APC), unlabeled (from UniProt P04070 43-197; P04070 43-197) (enzyme)”, the mean fluorescence intensity (MFI) of APC labeling, without CIDR domains [2] was 994 and the percent of CHO745-EPCR cells labeled for APC, without CIDR domains [2] was 76%.
With “Var19CIDRα1.1 recombinant protein (from UniProt A3R6S3 1-3373) (domain or fragment)” the decrease of binding relative to wild type EPCR [1] was 90%, the MFI of Fl-APC on the cells with 250 µg/ml of the CIDR domain (1329 without) [2] was 746 and the double positive cells (CIDR and Fl-APC) at 250 µg/ml of the CIDR domain [2] was 69%.
